According to IntAct's records for PubMed 31515488:

B1: Peroxisomal biogenesis factor 3 (Homo sapiens), P56589 (parent)
chain: MLRSVWNFLKRHKKKCIFLGTVLGGVYILGKYGQKKIREIQEREAAEYIAQARRQYHFESNQRTCNMTVLSMLPTLREALMQQLNSESLTALLKNRPSNKLEIWEDLKIISFTRSTVAVYSTCMLVVLLRVQLNIIGGYIYLDNAAVGKNGTTILAPPDVQQQYLSSIQHLLGDGLTELITVIKQAVQKVLGSVSLKHSLSLLDLEQKLKEIRNLVEQHKSSSWINKDGSKPLLCHYMMPDEETPLAVQACGLSPRDITTIKLLNETRDMLESPDFSTVLNTCLNRGFSRLLDNMAEFFRPTEQDLQHGNSMNSLSSVSLPLAKIIPIVNGQIHSVCSETPSHFVQDLLTMEQVKDFAANVYEAFSTPQQLEK
partner: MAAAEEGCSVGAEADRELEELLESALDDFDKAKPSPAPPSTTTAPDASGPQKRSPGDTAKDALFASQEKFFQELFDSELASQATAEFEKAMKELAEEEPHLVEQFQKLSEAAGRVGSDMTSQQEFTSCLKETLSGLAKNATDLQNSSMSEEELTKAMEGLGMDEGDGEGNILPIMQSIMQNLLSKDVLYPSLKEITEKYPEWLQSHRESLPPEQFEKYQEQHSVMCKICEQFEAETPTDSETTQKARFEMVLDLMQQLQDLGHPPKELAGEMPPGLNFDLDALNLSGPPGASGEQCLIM
B2: ADP-ribosylation factor-like protein 2-binding protein (Homo sapiens), Q9Y2Y0 (parent)
chain: MDALEGESFALSFSSASDAEFDAVVGYLEDIIMDDEFQLLQRNFMDKYYLEFEDTEENKLIYTPIFNEYISLVEKYIEEQLLQRIPEFNMAAFTTTLQHHKDEVAGDIFDMLLTFTDFLAFKEMFLDYRAEKEGRGLDLSSGLVVTSLCKSSSLPASQNNLRH
B3: Calcium-binding and coiled-coil domain-containing protein 2 (Homo sapiens), Q13137 (parent)
chain: MEETIKDPPTSAVLLDHCHFSQVIFNSVEKFYIPGGDVTCHYTFTQHFIPRRKDWIGIFRVGWKTTREYYTFMWVTLPIDLNNKSAKQQEVQFKAYYLPKDDEYYQFCYVDEDGVVRGASIPFQFRPENEEDILVVTTQGEVEEIEQHNKELCKENQELKDSCISLQKQNSDMQAELQKKQEELETLQSINKKLELKVKEQKDYWETELLQLKEQNQKMSSENEKMGIRVDQLQAQLSTQEKEMEKLVQGDQDKTEQLEQLKKENDHLFLSLTEQRKDQKKLEQTVEQMKQNETTAMKKQQELMDENFDLSKRLSENEIICNALQRQKERLEGENDLLKRENSRLLSYMGLDFNSLPYQVPTSDEGGARQNPGLAYGNPYSGIQESSSPSPLSIKKCPICKADDICDHTLEQQQMQPLCFNCPICDKIFPATEKQIFEDHVFCHSL
partner: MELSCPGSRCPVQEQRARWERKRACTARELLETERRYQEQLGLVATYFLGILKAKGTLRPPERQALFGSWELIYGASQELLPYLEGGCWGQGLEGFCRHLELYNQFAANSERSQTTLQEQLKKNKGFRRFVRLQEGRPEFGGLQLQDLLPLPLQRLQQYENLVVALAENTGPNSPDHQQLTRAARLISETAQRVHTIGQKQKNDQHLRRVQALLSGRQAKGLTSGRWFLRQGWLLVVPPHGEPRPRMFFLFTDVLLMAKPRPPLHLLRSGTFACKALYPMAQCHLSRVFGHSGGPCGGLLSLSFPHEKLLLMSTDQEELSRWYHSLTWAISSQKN
B4: Bcl-2-interacting killer (Homo sapiens), Q13323 (parent)
chain: MSEVRPLSRDILMETLLYEQLLEPPTMEVLGMTDSEEDLDPMEDFDSLECMEGSDALALRLACIGDEMDVSLRAPRLAQLSEVAMHSLGLAFIYDQTEDIRDVLRSFMDGFTTLKENIMRFWRSPNPGSWVSCEQVLLALLLLLALLLPLLSGGLHLLLK
partner: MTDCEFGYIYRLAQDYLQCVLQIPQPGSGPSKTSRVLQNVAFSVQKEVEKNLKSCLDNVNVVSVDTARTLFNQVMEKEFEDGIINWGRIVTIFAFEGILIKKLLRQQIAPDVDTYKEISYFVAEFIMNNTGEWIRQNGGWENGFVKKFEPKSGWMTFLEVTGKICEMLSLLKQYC
B5: Calcium-binding and coiled-coil domain-containing protein 2 (Homo sapiens), Q13137 (parent)
chain: B3 chain
B6: 5'-AMP-activated protein kinase subunit beta-2 (Homo sapiens), O43741 (parent)
chain: MGNTTSDRVSGERHGAKAARSEGAGGHAPGKEHKIMVGSTDDPSVFSLPDSKLPGDKEFVSWQQDLEDSVKPTQQARPTVIRWSEGGKEVFISGSFNNWSTKIPLIKSHNDFVAILDLPEGEHQYKFFVDGQWVHDPSEPVVTSQLGTINNLIHVKKSDFEVFDALKLDSMESSETSCRDLSSSPPGPYGQEMYAFRSEERFKSPPILPPHLLQVILNKDTNISCDPALLPEPNHVMLNHLYALSIKDSVMVLSATHRYKKKYVTTLLYKPI
B7: Microtubule-associated tumor suppressor candidate 2 (Homo sapiens), Q5JR59-3 (parent)
chain: MGHCCCKPYNCLQCLDKTNESALVKEKELSIELANIRDEVAFHTAKCEKLQKEKEELERRFEDEVKRLGWQQQAELQELEERLQLQFEAEMARLQEEHGDQLLSIRCQHQEQVEDLTASHDAALLEMENNHTVAITILQDDHDHKVQELMSTHELEKKELEENFEKLRLSLQDQVDTLTFQSQSLRDRARRFEEALRKNTEEQLEIALAPYQHLEEDMKSLKQVLEMKNQQIHEQEKKILELEKLAEKNIILEEKIQVLQQQNEDLKARIDQNTVVTRQLSEENANLQEYVEKETQEKKRLSRTNEELLWKLQTGDPTSPIKLSPTSPVYRGSSSGPSSPARVSTTPR
partner: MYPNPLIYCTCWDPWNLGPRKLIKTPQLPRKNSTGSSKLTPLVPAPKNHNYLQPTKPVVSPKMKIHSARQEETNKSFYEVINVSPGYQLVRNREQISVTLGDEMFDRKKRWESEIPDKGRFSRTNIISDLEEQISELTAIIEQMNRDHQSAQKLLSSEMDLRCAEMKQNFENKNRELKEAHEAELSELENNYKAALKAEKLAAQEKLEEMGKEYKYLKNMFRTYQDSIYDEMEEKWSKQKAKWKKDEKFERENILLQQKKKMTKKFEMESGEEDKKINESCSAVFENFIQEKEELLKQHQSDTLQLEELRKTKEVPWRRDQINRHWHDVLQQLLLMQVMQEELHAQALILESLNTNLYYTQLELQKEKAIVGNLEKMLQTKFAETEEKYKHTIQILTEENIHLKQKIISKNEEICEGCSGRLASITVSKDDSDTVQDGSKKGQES
B8: NADPH-dependent diflavin oxidoreductase 1 (Homo sapiens), Q9UHB4 (parent)
chain: MPSPQLLVLFGSQTGTAQDVSERLGREARRRRLGCRVQALDSYPVVNLINEPLVIFVCATTGQGDPPDNMKNFWRFIFRKNLPSTALCQMDFAVLGLGDSSYAKFNFVAKKLHRRLLQLGGSALLPVCLGDDQHELGPDAAVDPWLRDLWDRVLGLYPPPPGLTEIPPGVPLPSKFTLLFLQEAPSTGSEGQRVAHPGSQEPPSESKPFLAPMISNQRVTGPSHFQDVRLIEFDILGSGISFAAGDVVLIQPSNSAAHVQRFCQVLGLDPDQLFMLQPREPDVSSPTRLPQPCSMRHLVSHYLDIASVPRRSFFELLACLSLHELEREKLLEFSSAQGQEELFEYCNRPRRTILEVLCDFPHTAAAIPPDYLLDLIPVIRPRAFSIASSLLTHPSRLQILVAVVQFQTRLKEPRRGLCSSWLASLDPGQGPVRVPLWVRPGSLAFPETPDTPVIMVGPGTGVAPFRAAIQERVAQGQTGNFLFFGCRWRDQDFYWEAEWQELEKRDCLTLIPAFSREQEQKVYVQHRLRELGSLVWELLDRQGAYFYLAGNAKSMPADVSEALMSIFQEEGGLCSPDAAAYLARLQQTRRFQTETWA
partner: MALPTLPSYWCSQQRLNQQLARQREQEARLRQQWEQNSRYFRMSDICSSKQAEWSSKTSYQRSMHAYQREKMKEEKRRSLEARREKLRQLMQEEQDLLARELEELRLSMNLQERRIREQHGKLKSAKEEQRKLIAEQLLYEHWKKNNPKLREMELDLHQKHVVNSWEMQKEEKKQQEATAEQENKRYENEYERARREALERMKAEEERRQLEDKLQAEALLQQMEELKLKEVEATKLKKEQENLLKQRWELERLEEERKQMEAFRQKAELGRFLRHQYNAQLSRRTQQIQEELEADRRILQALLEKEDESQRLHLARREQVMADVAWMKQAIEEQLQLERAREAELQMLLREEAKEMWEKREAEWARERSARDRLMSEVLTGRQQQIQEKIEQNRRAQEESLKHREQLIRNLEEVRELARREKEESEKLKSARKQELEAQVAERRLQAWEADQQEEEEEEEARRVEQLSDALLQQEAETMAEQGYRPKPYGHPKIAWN
B9: Leucine rich adaptor protein 1 (Homo sapiens), Q96LR2 (parent)
chain: MEGTVESQTPDLRDVEGKVGRKTPEGLLRGLRGECELGTSGALLLPGASSTGHDLGDKIMALKMELAYLRAIDVKILQQLVTLNEGIEAVRWLLEERGTLTSHCSSLTSSQYSLTGGSPGRSRRGSWDSLPDTSTTDRLDSVSIGSFLDTVAPSELDEQGPPGAPRSEMDWAKVIAGGERARTEVDVAATRLGSLRAVWKPPGERLQGGPPESPEDESAKLGFEAHWFWEQCQDDVTFL
partner: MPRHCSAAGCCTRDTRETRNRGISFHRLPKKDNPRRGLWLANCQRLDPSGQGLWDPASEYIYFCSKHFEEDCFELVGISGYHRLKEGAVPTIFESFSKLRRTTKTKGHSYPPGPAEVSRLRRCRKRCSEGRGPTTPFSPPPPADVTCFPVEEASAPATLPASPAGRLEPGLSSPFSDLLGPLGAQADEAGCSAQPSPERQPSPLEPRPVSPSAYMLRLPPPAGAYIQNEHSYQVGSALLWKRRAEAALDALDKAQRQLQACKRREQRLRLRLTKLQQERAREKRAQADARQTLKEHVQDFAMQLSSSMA

Variants of: B1
Conditions: with pex19_human PEX19, P40855

Variant | effect of a mutation on the interaction
Q82R | with no effect
D347Y | with no effect

Variants of: B2
Conditions: with arl2_human ARL2, P36404
Sequence of arl2_human ARL2, P36404 (P36404 whole entry): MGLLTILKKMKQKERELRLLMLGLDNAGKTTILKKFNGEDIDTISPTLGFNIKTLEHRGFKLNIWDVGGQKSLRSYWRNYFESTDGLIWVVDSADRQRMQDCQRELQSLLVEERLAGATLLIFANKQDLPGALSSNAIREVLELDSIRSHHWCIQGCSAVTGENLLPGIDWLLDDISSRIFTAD

Variant | effect of a mutation on the interaction
M45R | disrupting interaction strength
E87K | disrupting interaction strength

Variants of: B3
Conditions: with arg39_human ARHGEF39, Q8N4T4

Variant | effect of a mutation on the interaction
V248A | with no effect

Variants of: B4
Conditions: with BCL2A1, Q16548

Variant | effect of a mutation on the interaction
D69E | with no effect

Variants of: B5
Conditions: with leg8_human LGALS8, O00214
Sequence of leg8_human LGALS8, O00214 (O00214 whole entry): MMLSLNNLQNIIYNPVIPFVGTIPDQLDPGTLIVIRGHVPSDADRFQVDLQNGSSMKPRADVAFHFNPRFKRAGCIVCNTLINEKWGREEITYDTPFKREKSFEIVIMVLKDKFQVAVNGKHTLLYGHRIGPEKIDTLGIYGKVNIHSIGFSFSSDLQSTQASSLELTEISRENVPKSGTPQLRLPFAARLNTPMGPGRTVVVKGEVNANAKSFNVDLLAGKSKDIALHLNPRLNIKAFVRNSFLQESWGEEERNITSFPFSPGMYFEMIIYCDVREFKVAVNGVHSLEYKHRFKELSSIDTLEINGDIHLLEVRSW

Variant | effect of a mutation on the interaction
E222K | with no effect
T255A | with no effect
T273A | with no effect
P389A | with no effect

Variants of: B5
Conditions: with smrd1_human SMARCD1, Q96GM5
Sequence of smrd1_human SMARCD1, Q96GM5 (Q96GM5 whole entry): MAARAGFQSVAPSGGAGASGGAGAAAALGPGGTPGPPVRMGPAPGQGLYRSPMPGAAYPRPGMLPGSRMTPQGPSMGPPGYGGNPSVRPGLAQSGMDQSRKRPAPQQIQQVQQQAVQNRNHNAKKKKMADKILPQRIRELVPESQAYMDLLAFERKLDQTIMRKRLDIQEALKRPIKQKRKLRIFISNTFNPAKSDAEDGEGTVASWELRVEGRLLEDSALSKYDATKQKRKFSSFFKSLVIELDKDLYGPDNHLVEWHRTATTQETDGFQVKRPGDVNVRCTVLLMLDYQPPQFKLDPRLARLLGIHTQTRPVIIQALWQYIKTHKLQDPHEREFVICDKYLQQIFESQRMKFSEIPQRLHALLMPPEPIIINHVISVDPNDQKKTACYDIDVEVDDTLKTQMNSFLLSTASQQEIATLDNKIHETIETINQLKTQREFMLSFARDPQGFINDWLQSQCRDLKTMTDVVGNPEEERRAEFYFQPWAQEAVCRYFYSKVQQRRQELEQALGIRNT

Variant | effect of a mutation on the interaction
E222K | with no effect

Variants of: B5
Conditions: with tcl1a_human TCL1A

Variant | effect of a mutation on the interaction
E222K | with no effect
T273A | with no effect
P389A | with no effect

Variants of: B5
Conditions: with dus12_human DUSP12, Q9UNI6
Sequence of dus12_human DUSP12, Q9UNI6 (Q9UNI6 whole entry): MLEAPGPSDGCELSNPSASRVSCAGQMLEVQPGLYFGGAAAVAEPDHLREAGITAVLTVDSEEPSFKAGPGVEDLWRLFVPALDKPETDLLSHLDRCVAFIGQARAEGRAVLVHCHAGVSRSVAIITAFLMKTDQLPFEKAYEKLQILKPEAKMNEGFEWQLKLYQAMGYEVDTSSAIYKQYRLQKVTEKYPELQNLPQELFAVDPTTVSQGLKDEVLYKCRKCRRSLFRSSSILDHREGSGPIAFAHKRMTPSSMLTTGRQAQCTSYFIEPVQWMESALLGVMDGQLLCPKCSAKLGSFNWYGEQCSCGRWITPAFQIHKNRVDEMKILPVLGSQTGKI

Variant | effect of a mutation on the interaction
T273A | with no effect
P389A | with no effect

Variants of: B5
Conditions: with tekt3_human TEKT3, Q9BXF9
Sequence of tekt3_human TEKT3, Q9BXF9 (Q9BXF9 whole entry): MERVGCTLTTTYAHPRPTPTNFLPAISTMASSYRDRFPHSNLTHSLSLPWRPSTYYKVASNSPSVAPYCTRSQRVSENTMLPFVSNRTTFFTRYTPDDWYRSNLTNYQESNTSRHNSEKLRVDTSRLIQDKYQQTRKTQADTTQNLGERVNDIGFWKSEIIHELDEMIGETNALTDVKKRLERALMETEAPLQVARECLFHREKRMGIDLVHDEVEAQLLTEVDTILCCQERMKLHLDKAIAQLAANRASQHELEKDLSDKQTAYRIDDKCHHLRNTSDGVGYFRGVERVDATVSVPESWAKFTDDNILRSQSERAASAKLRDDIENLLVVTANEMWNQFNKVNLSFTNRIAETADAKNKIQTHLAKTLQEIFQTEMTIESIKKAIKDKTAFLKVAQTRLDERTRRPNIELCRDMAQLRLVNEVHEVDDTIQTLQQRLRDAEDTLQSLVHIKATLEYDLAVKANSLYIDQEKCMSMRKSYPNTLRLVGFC

Variant | effect of a mutation on the interaction
V248A | with no effect

Variants of: B6
Conditions: with oxda_human DAO

Variant | effect of a mutation on the interaction
G55E | with no effect

Variants of: B6
Conditions: with mdfi_human MDFI

Variant | effect of a mutation on the interaction
G55E | with no effect

Variants of: B6
Conditions: with crx_human CRX

Variant | effect of a mutation on the interaction
G55E | with no effect

Variants of: B6
Conditions: with cdx4_human CDX4, O14627
Sequence of cdx4_human CDX4, O14627 (O14627 whole entry): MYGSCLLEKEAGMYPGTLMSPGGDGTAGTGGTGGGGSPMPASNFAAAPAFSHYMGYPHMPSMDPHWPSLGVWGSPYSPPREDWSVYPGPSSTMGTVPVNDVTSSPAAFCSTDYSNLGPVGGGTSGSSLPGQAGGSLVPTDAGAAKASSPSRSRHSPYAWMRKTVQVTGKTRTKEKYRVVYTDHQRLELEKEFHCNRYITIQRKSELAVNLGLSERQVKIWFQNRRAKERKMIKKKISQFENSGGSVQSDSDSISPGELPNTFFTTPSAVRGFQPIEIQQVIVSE

Variant | effect of a mutation on the interaction
G55E | with no effect

Variants of: B7
Conditions: with facc1_human FLACC1, Q96Q35

Variant | effect of a mutation on the interaction
A89V | with no effect

Variants of: B8
Conditions: with tchp_human TCHP

Variant | effect of a mutation on the interaction
P281L | disrupting interaction strength

Variants of: B9
Conditions: with thap7_human THAP7, Q9BT49

Variant | effect of a mutation on the interaction
M60L | with no effect
